Assay results published in patent publication US20190358302A1.

Molecular target: cation independent mannose-6-phosphate receptor (CIMPR)
Assay: immobilized CIMPR affinity column, elution with free M6P

Substance: Fabrazyme (agalsidase beta) (from UniProt P06280 32-429) (enzyme)
- % bound to CIMPR column: 90%
